Reference: patent US20240067734A1 (Hoffmann-La Roche, published 2024)
One block for each binder: values may come before it.

What was measured:
[1] = molecular target: T1, human NKG2D expressed on cells (human, UniProt P26718 1-216); assay: flow cytometry on NKG2D-positive NK92 cells, anti-human Fc secondary antibody
T1 construct: the cell type is named under assay; also called NKG2D on NK92 cells; HEK293T human NKG2D
T1 chain: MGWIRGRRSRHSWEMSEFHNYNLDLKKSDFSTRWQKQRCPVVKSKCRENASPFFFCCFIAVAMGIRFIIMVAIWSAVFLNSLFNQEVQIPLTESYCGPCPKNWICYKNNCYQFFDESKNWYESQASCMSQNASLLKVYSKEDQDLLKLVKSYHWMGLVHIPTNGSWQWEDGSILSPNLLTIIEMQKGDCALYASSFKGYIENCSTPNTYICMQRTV
Method: Viability of NK92 cells or tumor cells (MKN-45, LS180) was checked and cells were re-suspended and adjusted to a density of 1 mio cells/ml. 100 μl per well of this cell suspension (containing 0.1 mio cells) were seeded into a 96 well round bottom plate. The plate was centrifuged for 4 min at 400×g and the supernatant was removed. Then 40 μl of the diluted antibodies or FACS buffer were added to the cells and incubated for 30 min at 4° C. After the incubation the cells were washed twice with 150 μl FACS buffer per well. […] The cells were incubated for an additional 30 min at 4° C. To remove unbound antibody, the cells were washed again twice with 150 μl per well FACS buffer. To fix the cells, 100 μl of FACS buffer containing 1% PFA were added to the wells. Before measuring, the cells were re-suspended in 150 μl FACS buffer. The fluorescence was measured using a BD flow cytometer.

di cyNKG2D ECD Fc avi = molecular target: T2, di cyNKG2D ECD Fc avi (cynomolgus, biotinylated at the avi-tag); assay: SPR Biacore; IgG captured by anti-Fab, antigen analyte; TraceDrawer fit
T2 construct: Dimeric fusion of cynomolgus NKG2D ECD to the C-terminus of an avi-tagged human IgG1 Fc; also called recombinant cynomolgus NKG2D
T2 sequence (chain, as listed by the source limits assumed): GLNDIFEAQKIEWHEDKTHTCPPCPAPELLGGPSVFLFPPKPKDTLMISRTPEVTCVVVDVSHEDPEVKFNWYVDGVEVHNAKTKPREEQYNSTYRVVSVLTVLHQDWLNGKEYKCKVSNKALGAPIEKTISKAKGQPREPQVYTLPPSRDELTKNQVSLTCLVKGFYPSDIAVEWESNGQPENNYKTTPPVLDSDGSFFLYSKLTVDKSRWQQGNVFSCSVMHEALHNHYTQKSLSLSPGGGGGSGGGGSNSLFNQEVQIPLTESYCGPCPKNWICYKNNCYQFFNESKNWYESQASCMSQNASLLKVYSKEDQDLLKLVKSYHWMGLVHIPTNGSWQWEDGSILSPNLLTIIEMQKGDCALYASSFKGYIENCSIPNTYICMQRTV
Method: (§1) Around 1500 resonance units (RU) of the capture antibody (10 μg/ml human Fab Capture Kit, GE Healthcare Life Sciences, #28958325) were coupled onto a CM5 chip (GE Healthcare, #BR-1005-30) using a BIACORE® B4000 instrument (GE Healthcare) at pH 5.0 by using an amine coupling kit supplied by GE Healthcare. The sample and system buffer was PBS-T (10 mM phosphate buffered saline including 0.05% TWEEN® (polysorbate) 20) pH 7.4. The flow cells were set to 25° C.—and the sample block set to 12° C.—and primed twice with running buffer. The antibody was captured by injecting a ˜10 μg/ml solution for 60 sec at a flow rate of 10 μl/min. Association was measured by injection of di huNKG2D ECD Fc avi (SEQ ID NO: 96) or di cyNKG2D ECD Fc avi (SEQ ID NO: 97) in various concentrations in solution for 180 s at a flow rate of 30 μl/min starting with 600 nM, 300 nM, 150 nM following […] dilutions. The dissociation phase was monitored for up to 450 s and triggered by switching from the sample solution to running buffer. The surface was regenerated by 2×90 s washing with a glycine pH 2.1 solution at a flow rate of 30 μl/min and an additional stabilization period of 180 s. Bulk refractive index differences were corrected by subtracting the response obtained from an anti-human Fab surface. Blank injections were also subtracted (=double referencing). For calculation of KD, kₐ and kd (see Table 8), the Langmuir 1:1 model in the BIACORE® 4000 Evaluation software 1.1 (GE Healthcare) or TraceDrawer 1.6.1 (Ridgeview Instruments AB) were used.

di huNKG2D ECD Fc avi = molecular target: T3, di huNKG2D ECD Fc avi (human, biotinylated at the avi-tag); assay: as above
T3 construct: Dimeric fusion of human NKG2D ECD to the C-terminus of an avi-tagged human IgG1 Fc
Method: as §1

[2] = molecular target: T1, human NKG2D expressed on cells; assay: flow cytometry; NK92 cells; NK92 cells, Table 11 immune-cell binding (concentration dependent)
[3] = molecular target: T1, human NKG2D expressed on cells; assay: flow cytometry; expanded human NK cells; NK cells, Table 11 immune-cell binding
Method: Viability of expanded NK cells was checked and cells were adjusted to a density of 1 mio cells/ml in FACS buffer. 100 μl of these cell suspensions (containing 0.1 mio cells) were seeded into a 96 well round bottom plate. The plate was centrifuged for 4 min at 400×g and the supernatant was removed. Then 0.5 μl FC BLOCK™ (BD Bioscience) in 20 μl total volume per well were added and the plate was incubated for 30 min at 4° C. Supernatant was removed and then 40 μl of the diluted NKG2D antibodies were added to the cells and incubated for additional 30 min at 4° C. After the incubation the cells were washed twice with 150 μl FACS buffer per well. Then 20 μl of the diluted FITC anti-human Fc specific secondary antibody (Jackson ImmunoResearch, #109-096-098) was added to the cells. The cells were incubated for an additional 30 min at 4° C. To remove unbound antibody the cells were washed again twice with 150 μl per well FACS buffer. To fix the cells 100 μl of FACS buffer containing 1% PFA were added to the wells. Before measuring the cells were re-suspended in 150 μl FACS buffer. The fluorescence was measured using a BD CantoII flow cytometer.

EC50 (read off the curve) [1]: ~2 nM
B1: anti-NKG2D antibody clone 395 (antibody, V domains shown)
VH: QEQLEQSGGGLVTPGGSLKLCCTASGFDFNTFWMTWVRQAPGKGLEWIGCIHGGSGSRDYASWVNGRFTLSRDIDQSTACLQVNSLTAADTAMYYCARPGYRSWSKTFDLWGQGTMVTVSS
VL: DIQMTQSPSSLSASVGDRVTITCRASQDISGALNWYQQKPGKAPNLLIYAASSLQSGVPSRFSGSGSGTDYTLTISSLQPEDFATYYCQQANSFPLTFGGGTKVEIK
notes: From transgenic rabbits; rabbit VH, human VL

Kd (di cyNKG2D ECD Fc avi): 710 nM | koff (di cyNKG2D ECD Fc avi): 0.09 s⁻¹ | kon (di cyNKG2D ECD Fc avi): 130000 M⁻¹ s⁻¹
B2: anti-NKG2D antibody clone 296 (antibody, V domains shown)
VH: EVQLLESGGGLVQPGGSLRLSCAASGFTFSSYAMSWVRQAPGKGLEWVSAIGIGGGGTYYADSVKGRFTISRDNSKNTLYLQMNSLRAEDTAVYHCAKGASFDFINFFPYWGQGTLVTVSS
VL: DIQMTQSPSSLSASVGDRVTITCRASQGISNDLAWYQQKPGKAPKLLIYAASSLQSGVPSRFSGSGSGTDFTLTISSLQPEDFATYYCQQTYSTPLTFGGGTKVEIK
notes: From transgenic rabbits

Kd (di huNKG2D ECD Fc avi): 63 nM | koff (di huNKG2D ECD Fc avi): 0.014 s⁻¹ | kon (di huNKG2D ECD Fc avi): 220000 M⁻¹ s⁻¹
B3: anti-NKG2D antibody 5C5 (IgG) (antibody, V domains shown)
VH: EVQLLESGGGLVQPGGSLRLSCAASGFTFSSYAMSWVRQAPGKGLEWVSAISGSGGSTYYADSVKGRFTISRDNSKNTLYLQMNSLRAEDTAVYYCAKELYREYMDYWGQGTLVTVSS
VL: SSELTQDPAVSVALGQTVRITCQGDSLRSYYASWYQQKPGQAPVLVIYGKNNRPSGIPDRFSGSSSGNTASLTITGAQAEDEADYYCNSRDSFSIHQNVFGGGTKLTVL
notes: also called clone 5C5

EC50 [2]: 122 nM | EC50 [3]: 48.8 nM
B4: anti-NKG2D antibody clone 013 (antibody, V domains shown)
VH: EQSGGGAGGGLVKPGGSLELCCKASGFDFSIYWMSWVRQSPGKGLEWIGRIYGGSSDYTAYASWVNGRFTLSRDIDQSTGCLQLNSLTAADTAMYYCVRLNPSFSRSFDYWGQGTLVTVSS
VL: DIQMTQSPSSVSASVGDRVTITCRASQGIFSWLVWYQQKPGKAPELLMYGASTLQSGVPSRFSGSGSGTDFTLTISSLQPEDFATYYCQQGYSTPYTFGQGTKVEIK
notes: From transgenic rabbits
